Test results published in patent US20040265963A1 (UNIVERSITY OF FLORIDA RESEARCH FOUNDATION, published 2004).
Ends that are not written are not given here. * marks the point of attachment. Biotin = O=C1N[C@H]2[C@H](CS[C@H]2CCCCC(=O)*)N1

Experiments:
Experiment in all cases: ELISA, biotinylated JAK2 WT on plate-coated control peptide (FIG. 1A)
[1] = target: T1, CDK-2 cyclin box peptide (cyclin-dependent kinase, cyclin box peptide 41-61)
T1 construct: Control peptide; also called CDK 41-61
T1 peptide: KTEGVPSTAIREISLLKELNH

[2] = target: T2, VEGFR peptide (vascular endothelial growth factor receptor autophosphorylation peptide VEGFR 1208-1222)
T2 construct: Control peptide
T2 peptide: SSDVRYVNAFKFM

MuIFN-γ(95-125) peptide = target: T3, MuIFN-γ(95-125) peptide (murine)
T3 construct: Control peptide; numbering is on the mature form of murine IFN-γ
T3 peptide: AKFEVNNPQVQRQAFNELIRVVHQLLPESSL

Measured: binding result

B1: biotinylated JAK2 WT peptide (JAK2 autophosphorylation peptide, residues 1001-1013, LPQDKEYYKVKEP) (peptide)
peptide: Biotin-LPQDKEYYKVKEP
notes: Synthetic peptide, biotin incorporated at the N-terminus during synthesis; not phosphorylated at Y1007; also called wild type JAK2 peptide; unphosphorylated JAK2 WT
no binding: all assays above
